According to article PMC6144824:

Target: mitoribosome large subunit (mtLSU, 39S) (human (endogenous in HEK293T and 143B))
Experiment: co-sedimentation

Q: Which percent of total MTG1 co-sedimenting with mtLSU markers does the source give for “MTG1 (human mitochondrial ribosome assembly GTPase), endogenous (natural protein)” here?
A: 10%
